Reference: publication doi:10.1101/2021.01.13.426456

Tests used:
[1] = target: Full length zebrafish Cavin4b (zebrafish) (UniProt Q5PQY9); assay: ITC
[2] = target: Bin1b SH3 domain (zebrafish); assay: ITC

Substance	Kd [1]	Kd [2]
Bin1b SH3 domain (domain or fragment)	55.9 µM	–
Cavin4b PRD peptide	–	61.7 µM
Chikungunya virus (CHIKV) proline-rich peptide	–	0.0889 µM
